PMC6026032

Key:
Conditions in all cases: glycan lost; control: wild type
[1] = immunoblot of HEK293T conditioned medium
[2] = co-IP from conditioned medium
[3] = native gel electrophoresis, HA immunoblot

Protein | expression_or_secretion [1] | oligomerisation [2] | oligomerisation [3]
Cbln1: N23Q (protein) parent chain: MLGVVELLLLGTAWLAGPARGQNETEPIVLEGKCLVVCDSNPTSDPTGTALGISVRSGSAKVAFSAIRSTNHEPSEMSNRTMIIYFDQVLVNIGNNFDSERSTFIAPRKGIYSFNFHVVKVYNRQTIQVSLMLNGWPVISAFAGDQDVTREAASNGVLIQMEKGDRAYLKLERGNLMGGWKYSTFSGFLVFPL | no change | – | –
Cbln1: Cbln1N23Q (protein) parent chain: MLGVVELLLLGTAWLAGPARGQNETEPIVLEGKCLVVCDSNPTSDPTGTALGISVRSGSAKVAFSAIRSTNHEPSEMSNRTMIIYFDQVLVNIGNNFDSERSTFIAPRKGIYSFNFHVVKVYNRQTIQVSLMLNGWPVISAFAGDQDVTREAASNGVLIQMEKGDRAYLKLERGNLMGGWKYSTFSGFLVFPL | – | no change | no change
Cbln1: Cbln1N79Q (protein) parent chain: MLGVVELLLLGTAWLAGPARGQNETEPIVLEGKCLVVCDSNPTSDPTGTALGISVRSGSAKVAFSAIRSTNHEPSEMSNRTMIIYFDQVLVNIGNNFDSERSTFIAPRKGIYSFNFHVVKVYNRQTIQVSLMLNGWPVISAFAGDQDVTREAASNGVLIQMEKGDRAYLKLERGNLMGGWKYSTFSGFLVFPL | – | no change | no change
Cbln2: N110Q (protein) parent chain: MPAPGQGPRGPLLSMPGRRGALREPADFGSSLGAVLALLLLLLPACCPVRAQNDTEPIVLEGKCLVVCDSSPSGDGAVTSSLGISVRSGSAKVAFSATRSTNHEPSEMSNRTMTIYFDQVLVNIGNHFDLASSIFVAPRKGIYSFSFHVVKVYNRQTIQVSLMQNGYPVISAFAGDQDVTREAASNGVLLLMEREDKVHLKLERGNLMGGWKYSTFSGFLVFPL | no change | – | –
Cbln1: N79Q (protein) parent chain: MLGVVELLLLGTAWLAGPARGQNETEPIVLEGKCLVVCDSNPTSDPTGTALGISVRSGSAKVAFSAIRSTNHEPSEMSNRTMIIYFDQVLVNIGNNFDSERSTFIAPRKGIYSFNFHVVKVYNRQTIQVSLMLNGWPVISAFAGDQDVTREAASNGVLIQMEKGDRAYLKLERGNLMGGWKYSTFSGFLVFPL | no change | – | –
Cbln2: Cbln2N53Q (protein) parent chain: MPAPGQGPRGPLLSMPGRRGALREPADFGSSLGAVLALLLLLLPACCPVRAQNDTEPIVLEGKCLVVCDSSPSGDGAVTSSLGISVRSGSAKVAFSATRSTNHEPSEMSNRTMTIYFDQVLVNIGNHFDLASSIFVAPRKGIYSFSFHVVKVYNRQTIQVSLMQNGYPVISAFAGDQDVTREAASNGVLLLMEREDKVHLKLERGNLMGGWKYSTFSGFLVFPL | – | – | no change
Cbln2: Cbln2N110Q (protein) parent chain: MPAPGQGPRGPLLSMPGRRGALREPADFGSSLGAVLALLLLLLPACCPVRAQNDTEPIVLEGKCLVVCDSSPSGDGAVTSSLGISVRSGSAKVAFSATRSTNHEPSEMSNRTMTIYFDQVLVNIGNHFDLASSIFVAPRKGIYSFSFHVVKVYNRQTIQVSLMQNGYPVISAFAGDQDVTREAASNGVLLLMEREDKVHLKLERGNLMGGWKYSTFSGFLVFPL | – | – | no change
Cbln4: Cbln4N26Q (protein) parent chain: MGSARRALSVVPAVLLILVLPVWAQNDTEPIVLEGKCLVVCDSNPATDSKGSSSSPLGISVRAANSKVAFSAVRSTNHEPSEMSNKTRIIYFDQILVNVGNFFTLESVFVAPRKGIYSFSFHVIKVYQSQTIQVNLMLNGKPVISAFAGDKDVTREAATNGVLLYLDKEDKVYLKLEKGNLLGGWQYSTFSGFLVFPL | – | no change | changes
Cbln4: Cbln4N85Q (protein) parent chain: MGSARRALSVVPAVLLILVLPVWAQNDTEPIVLEGKCLVVCDSNPATDSKGSSSSPLGISVRAANSKVAFSAVRSTNHEPSEMSNKTRIIYFDQILVNVGNFFTLESVFVAPRKGIYSFSFHVIKVYQSQTIQVNLMLNGKPVISAFAGDKDVTREAATNGVLLYLDKEDKVYLKLEKGNLLGGWQYSTFSGFLVFPL | – | no change | no change
